{"source": "paper PMC10992996", "about": "“Human CRB1 and CRB2 form homo- and heteromeric protein complexes in the retina” (Life Science Alliance, 2024)", "binders": {"B1": {"name": "Human canonical CRB2 (Crumbs homolog 2) (natural protein)", "chain": "not shown", "notes": "Crumbs homolog 2, human, cDNA NM_173689; Stood as bait (FLAG copy) and as prey (HA copy) in the pairwise co-IP matrix; each copy carries only one of the two tags; The FLAG copy was the bait of the mass spectrometry pull-downs; also called CRB2-FLAG; CRB2-HA; source: HEK293T, transfected, in lysate (co-IP); HEK293T, transfected, FLAG-IP on beads, washed and purified with 0.01% SDS (retina …)"}}, "target": "T1, CRB1-FLAG p.G1103R (human, UniProt P82279 26-1406, p.G1103R)", "T1 construct": "Crumbs homolog 1, canonical form, human, cDNA NM_202153 as printed, with a patient missense mutation in the last laminin G domain; Made by site-directed mutagenesis of m1; also called CRB1 p.G1103R; CRB1-FLAG MT; source: HEK293T, transfected, in lysate; not shown: Strep-Strep-FLAG, N-terminal, kept", "T1 sequence (looked up)": "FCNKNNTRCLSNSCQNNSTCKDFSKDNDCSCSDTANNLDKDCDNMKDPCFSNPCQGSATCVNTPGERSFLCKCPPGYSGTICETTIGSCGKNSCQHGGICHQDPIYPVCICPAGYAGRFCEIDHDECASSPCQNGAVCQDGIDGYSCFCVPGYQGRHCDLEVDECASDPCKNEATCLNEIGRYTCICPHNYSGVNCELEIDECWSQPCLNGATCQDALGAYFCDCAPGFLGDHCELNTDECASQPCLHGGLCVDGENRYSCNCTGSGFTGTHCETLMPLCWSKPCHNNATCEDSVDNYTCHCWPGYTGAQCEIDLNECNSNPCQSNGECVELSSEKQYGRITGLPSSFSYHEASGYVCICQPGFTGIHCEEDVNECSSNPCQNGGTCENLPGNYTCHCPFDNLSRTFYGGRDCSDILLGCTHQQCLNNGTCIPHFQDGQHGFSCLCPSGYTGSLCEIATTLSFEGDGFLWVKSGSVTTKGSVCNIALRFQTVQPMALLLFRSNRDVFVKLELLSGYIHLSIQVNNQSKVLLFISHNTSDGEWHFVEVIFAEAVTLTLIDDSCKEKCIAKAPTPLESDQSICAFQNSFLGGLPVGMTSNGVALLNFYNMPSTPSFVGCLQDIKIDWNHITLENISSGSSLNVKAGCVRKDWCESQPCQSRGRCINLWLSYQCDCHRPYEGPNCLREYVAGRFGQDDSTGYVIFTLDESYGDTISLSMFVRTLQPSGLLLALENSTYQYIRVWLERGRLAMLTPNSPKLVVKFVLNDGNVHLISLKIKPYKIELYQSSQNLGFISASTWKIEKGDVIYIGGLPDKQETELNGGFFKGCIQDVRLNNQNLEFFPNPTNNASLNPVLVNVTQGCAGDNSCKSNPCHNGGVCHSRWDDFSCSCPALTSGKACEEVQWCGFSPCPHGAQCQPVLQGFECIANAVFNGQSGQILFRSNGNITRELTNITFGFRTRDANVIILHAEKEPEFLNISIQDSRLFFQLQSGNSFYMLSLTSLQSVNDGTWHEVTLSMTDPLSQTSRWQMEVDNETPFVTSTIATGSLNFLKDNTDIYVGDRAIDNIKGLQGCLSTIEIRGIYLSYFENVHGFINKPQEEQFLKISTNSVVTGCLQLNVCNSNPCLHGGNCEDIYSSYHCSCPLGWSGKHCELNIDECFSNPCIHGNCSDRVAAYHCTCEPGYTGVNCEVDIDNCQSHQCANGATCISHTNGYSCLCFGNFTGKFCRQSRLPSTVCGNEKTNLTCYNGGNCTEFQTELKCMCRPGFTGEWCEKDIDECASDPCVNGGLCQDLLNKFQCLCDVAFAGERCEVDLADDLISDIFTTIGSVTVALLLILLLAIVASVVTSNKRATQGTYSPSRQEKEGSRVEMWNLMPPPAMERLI", "assay": "co-IP; HEK293T cells co-transfected pairwise with a FLAG and an HA construct, 48 h; lysis in TBS (30 mM Tris-HCl pH 7.4, 150 mM NaCl) with 0.5% Nonidet P40; FLAG-IP on ANTI-FLAG M2 Affinity Gel 60-90 min at 4°C, elution with FLAG peptide; Western blot with HA and FLAG antibodies; for mutants HA/FLAG signal in eluates relative to WT, three biological replicates", "details": "partners not purified"}
{"binder": "B1", "values": [{"measurement": "percent reduction of the interaction relative to CRB1 WT", "result": "~30", "unit": "%"}]}
